Patent US20250381289A1 (Genmab, published 2025)

Assays:
[1] = target: T1, EGFR on EGFR and cMET co-expressed tumor cell lines (UniProt P00533 25-1210, limits assumed); assay: flow cytometry, EBC-1 cells (co-express EGFR and cMET; both arms contribute)
T1 construct: whole, on cells

[2] = target: T2, cMET on EGFR and cMET co-expressed tumor cell lines (UniProt P08581 25-1390, limits assumed); assay: as above
T2 construct: whole, on cells

[3] = target: T1, EGFR on EGFR and cMET co-expressed …; assay: flow cytometry on SNU-5 cells (co-express EGFR and cMET), PE anti-human Fc; signal of the whole bispecific, not resolved by arm
Experimental: (§1) EBC-1, ACHN and CAL-27 were cultured with DMEM medium (Gibco, Cat #C11995500BT) containing 10% FBS. […] Each antibody was incubated with different cell lines (1×10⁵ cells per well) for 30 mins in 0.2 mL FACS buffer (1×PBS with 0.1% BSA) at 4° C. After wash, cells were incubated with 100 μL PE-conjugated anti human Fc (Abcam, Ab98596, 1:500 dilution) for 30 mins at 4° C. After wash with PBS, cells were resuspended in FACS buffer and analyzed by flow cytometer (Beckman, CytoFLEX).

[4] = target: T2, cMET on EGFR and cMET co-expressed …; assay: as above
Target sequence in this assay (P08581 25-1390 limits assumed): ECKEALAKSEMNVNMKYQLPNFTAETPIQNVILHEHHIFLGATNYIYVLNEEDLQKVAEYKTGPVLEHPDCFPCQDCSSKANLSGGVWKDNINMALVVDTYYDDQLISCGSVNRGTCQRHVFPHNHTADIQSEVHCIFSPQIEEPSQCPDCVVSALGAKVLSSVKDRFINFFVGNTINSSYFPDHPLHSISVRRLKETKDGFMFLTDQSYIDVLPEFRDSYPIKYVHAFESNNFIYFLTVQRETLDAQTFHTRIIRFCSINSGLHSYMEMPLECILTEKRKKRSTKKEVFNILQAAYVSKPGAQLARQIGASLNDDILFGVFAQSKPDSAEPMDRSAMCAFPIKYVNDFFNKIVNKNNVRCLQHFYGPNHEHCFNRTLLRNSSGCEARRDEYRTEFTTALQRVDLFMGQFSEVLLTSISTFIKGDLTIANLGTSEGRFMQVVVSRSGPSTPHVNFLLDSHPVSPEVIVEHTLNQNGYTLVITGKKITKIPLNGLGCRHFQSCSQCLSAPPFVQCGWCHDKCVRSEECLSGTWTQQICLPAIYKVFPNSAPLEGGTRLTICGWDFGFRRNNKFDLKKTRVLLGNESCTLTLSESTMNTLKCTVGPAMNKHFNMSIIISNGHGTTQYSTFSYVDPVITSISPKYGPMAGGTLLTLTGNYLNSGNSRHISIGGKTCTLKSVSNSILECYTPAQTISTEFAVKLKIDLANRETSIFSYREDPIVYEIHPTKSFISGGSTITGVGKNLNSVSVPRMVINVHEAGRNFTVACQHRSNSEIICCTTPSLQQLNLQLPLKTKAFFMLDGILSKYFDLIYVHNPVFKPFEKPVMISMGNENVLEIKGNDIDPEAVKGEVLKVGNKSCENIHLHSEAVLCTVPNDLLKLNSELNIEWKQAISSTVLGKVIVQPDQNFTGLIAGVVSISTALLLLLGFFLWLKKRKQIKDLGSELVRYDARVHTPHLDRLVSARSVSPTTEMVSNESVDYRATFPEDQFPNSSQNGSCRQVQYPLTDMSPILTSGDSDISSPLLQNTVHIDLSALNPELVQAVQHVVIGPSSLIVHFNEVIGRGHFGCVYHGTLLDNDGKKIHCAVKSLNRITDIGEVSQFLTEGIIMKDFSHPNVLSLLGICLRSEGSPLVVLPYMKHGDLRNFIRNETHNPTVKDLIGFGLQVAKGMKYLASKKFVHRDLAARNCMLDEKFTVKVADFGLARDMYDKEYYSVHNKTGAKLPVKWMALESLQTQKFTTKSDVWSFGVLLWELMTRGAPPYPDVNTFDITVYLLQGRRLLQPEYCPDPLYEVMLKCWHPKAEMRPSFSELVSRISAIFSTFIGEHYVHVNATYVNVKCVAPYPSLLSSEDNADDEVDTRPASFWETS
Experimental: as §1

[5] = target: T1, EGFR on EGFR and cMET co-expressed …; assay: flow cytometry, A549 cells (co-express EGFR and cMET; both arms contribute)
Experimental: (§2) EBC-1 was cultured with DMEM medium (Gibco, Cat #C11995500BT) containing 10% FBS. […] Each antibody was incubated with different cell lines (1×10⁵ cells/well) for 30 min in 0.2 mL FACS buffer (1×PBS with 0.1% BSA) at 4° C. After wash, cells were incubated with 100 μL PE-conjugated anti human Fc (Abcam, Ab98596, 1:500 dilution) for 30 min at 4° C. After wash with PBS, cells were resuspended in FACS buffer and analyzed by flow cytometer (Beckman, CytoFLEX).

[6] = target: T2, cMET on EGFR and cMET co-expressed …; assay: as above
Experimental: as §2

[7] = target: T1, EGFR on EGFR and cMET co-expressed …; assay: flow cytometry, SNU-5 cells (co-express EGFR and cMET; both arms contribute)
[8] = target: T2, cMET on EGFR and cMET co-expressed …; assay: as above
Target sequence in this assay (P08581 25-1390 limits assumed): as above

[9] = target: T3, Human cMET (human); assay: ELISA, coated human cMET, anti-human Fc-HRP
T3 construct: recombinant protein; also called human cMET recombinant protein
T3 sequence (P08581 whole entry): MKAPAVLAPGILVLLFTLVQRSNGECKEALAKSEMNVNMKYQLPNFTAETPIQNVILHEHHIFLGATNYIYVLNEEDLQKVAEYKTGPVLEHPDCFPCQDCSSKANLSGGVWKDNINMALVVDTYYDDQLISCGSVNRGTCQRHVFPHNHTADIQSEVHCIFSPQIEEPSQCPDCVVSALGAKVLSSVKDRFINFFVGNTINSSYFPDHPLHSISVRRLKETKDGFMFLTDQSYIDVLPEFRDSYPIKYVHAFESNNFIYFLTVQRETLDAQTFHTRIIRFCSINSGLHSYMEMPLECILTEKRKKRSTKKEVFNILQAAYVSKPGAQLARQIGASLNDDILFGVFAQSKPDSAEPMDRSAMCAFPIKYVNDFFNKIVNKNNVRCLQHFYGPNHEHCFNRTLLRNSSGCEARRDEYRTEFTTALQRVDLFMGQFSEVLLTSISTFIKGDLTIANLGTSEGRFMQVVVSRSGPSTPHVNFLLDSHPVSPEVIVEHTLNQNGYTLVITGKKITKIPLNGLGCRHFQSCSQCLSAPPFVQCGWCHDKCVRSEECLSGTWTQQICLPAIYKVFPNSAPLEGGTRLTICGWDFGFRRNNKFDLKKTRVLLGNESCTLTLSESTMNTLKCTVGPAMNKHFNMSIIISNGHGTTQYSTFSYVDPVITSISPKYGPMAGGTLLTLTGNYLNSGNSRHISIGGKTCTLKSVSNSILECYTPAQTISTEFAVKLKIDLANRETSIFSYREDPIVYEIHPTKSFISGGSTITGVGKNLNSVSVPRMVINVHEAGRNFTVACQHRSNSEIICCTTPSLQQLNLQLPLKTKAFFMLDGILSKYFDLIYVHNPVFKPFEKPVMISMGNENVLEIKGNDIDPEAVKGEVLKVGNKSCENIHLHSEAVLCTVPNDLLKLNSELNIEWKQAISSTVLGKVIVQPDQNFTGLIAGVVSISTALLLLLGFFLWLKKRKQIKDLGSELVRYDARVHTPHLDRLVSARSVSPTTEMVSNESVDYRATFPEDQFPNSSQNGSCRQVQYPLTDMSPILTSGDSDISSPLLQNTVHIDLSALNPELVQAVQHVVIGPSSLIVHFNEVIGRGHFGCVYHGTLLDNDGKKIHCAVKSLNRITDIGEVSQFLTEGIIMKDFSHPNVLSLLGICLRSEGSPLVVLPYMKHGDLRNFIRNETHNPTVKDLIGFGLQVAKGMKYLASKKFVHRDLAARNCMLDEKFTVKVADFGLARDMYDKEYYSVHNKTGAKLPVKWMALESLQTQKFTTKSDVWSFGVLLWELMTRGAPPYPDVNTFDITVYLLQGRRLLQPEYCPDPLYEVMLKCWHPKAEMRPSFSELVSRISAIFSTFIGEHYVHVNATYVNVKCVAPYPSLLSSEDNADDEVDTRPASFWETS
Experimental: (§3) Binding specificity was tested by ELISA according to the standard protocol. Specifically, 96-well plates were coated with 100 ng/well human EGFR, human HER2, human HER3, human HER4, human cMET, human Sema3A recombinant protein in PBS, incubated overnight at 4° C. Plates were washed twice by TBS+0.05% Tween20. 200 μL blocking buffer (2% BSA in PBS) was added to each well and incubated at 37° C. for 2 h. After wash, Serial diluted antibodies were added to the ELISA plate with 100 μL per well and incubated for 1 h at room temperature. Then plates were washed for 3 times. HRP conjugated anti-human Fc antibody solution (Abcam, ab98624) was added to the plate with 100 μL per well. The plates were incubated at room temperature for 1 h and then washed for 3 times. […] Finally, read the absorbance at A₄₅₀ and A₆₃₀.

[10] = target: T1, EGFR on EGFR and cMET co-expressed …; assay: flow cytometry, SW620 cells (named among the EGFR and cMET co-expressing lines; both arms contribute)
[11] = target: T2, cMET on EGFR and cMET co-expressed …; assay: as above
[12] = target: T1, EGFR on EGFR and cMET co-expressed …; assay: flow cytometry, MKN-45 cells (co-express EGFR and cMET; both arms contribute)
Experimental: (§4) EBC-1 was cultured with DMEM medium (Gibco, Cat #C11995500BT) containing 10% FBS. […] Each antibody was incubated with different cell lines (1×10⁵ cells/well) for 30 mins in 0.2 mL FACS buffer (1×PBS with 0.1% BSA) at 4° C. After wash, cells were incubated with 100 μL PE-conjugated anti human Fc (Abcam, Ab98596, 1:500 dilution) for 30 mins at 4° C. After wash with PBS, cells were resuspended in FACS buffer and analyzed by flow cytometer (Beckman, CytoFLEX).

[13] = target: T2, cMET on EGFR and cMET co-expressed …; assay: as above
Target sequence in this assay (P08581 25-1390 limits assumed): as the sequence (P08581 25-1390 limits assumed) above
Experimental: as §4

[14] = target: T1, EGFR on EGFR and cMET co-expressed …; assay: flow cytometry, NCI-N87 cells (co-express EGFR and cMET; both arms contribute)
Experimental: as §4

[15] = target: T2, cMET on EGFR and cMET co-expressed …; assay: as above
Target sequence in this assay (P08581 25-1390 limits assumed): as above
Experimental: as §4

[16] = target: T4, Human cMET; assay: ELISA, plate coated with 100 ng/well human cMET recombinant protein, HRP anti-human Fc, OD450
T4 construct: also called human cMET recombinant protein
T4 chain: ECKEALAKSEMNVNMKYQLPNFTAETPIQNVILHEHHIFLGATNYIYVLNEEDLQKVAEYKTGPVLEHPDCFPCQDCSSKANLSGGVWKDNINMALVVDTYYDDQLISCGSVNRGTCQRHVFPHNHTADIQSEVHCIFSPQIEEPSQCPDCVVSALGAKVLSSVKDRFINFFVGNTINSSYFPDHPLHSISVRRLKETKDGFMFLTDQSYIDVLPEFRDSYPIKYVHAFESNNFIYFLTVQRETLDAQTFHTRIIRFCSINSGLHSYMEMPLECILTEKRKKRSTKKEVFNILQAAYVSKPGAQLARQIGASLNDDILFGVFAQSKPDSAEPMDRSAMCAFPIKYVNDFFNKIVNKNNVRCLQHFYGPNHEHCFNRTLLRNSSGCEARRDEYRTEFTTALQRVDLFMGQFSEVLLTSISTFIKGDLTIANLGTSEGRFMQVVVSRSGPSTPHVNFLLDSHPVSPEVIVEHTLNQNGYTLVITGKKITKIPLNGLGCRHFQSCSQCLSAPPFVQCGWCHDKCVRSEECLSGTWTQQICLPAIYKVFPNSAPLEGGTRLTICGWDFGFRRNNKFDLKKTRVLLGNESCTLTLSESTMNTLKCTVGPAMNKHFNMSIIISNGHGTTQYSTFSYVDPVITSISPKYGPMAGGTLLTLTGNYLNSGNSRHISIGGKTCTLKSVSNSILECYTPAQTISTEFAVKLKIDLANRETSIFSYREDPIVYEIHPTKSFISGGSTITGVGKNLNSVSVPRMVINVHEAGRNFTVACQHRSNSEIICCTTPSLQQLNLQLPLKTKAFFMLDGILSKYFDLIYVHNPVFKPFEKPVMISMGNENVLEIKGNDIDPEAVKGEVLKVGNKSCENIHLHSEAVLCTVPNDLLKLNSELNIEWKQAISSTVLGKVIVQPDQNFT
Experimental: as §3

[17] = target: T5, Human EGFR (human, UniProt P00533); assay: ELISA, coated human EGFR, anti-human Fc-HRP
T5 construct: recombinant protein; also called human EGFR recombinant protein
Experimental: as §3

EC50 (read off the curve) [1]: ~1 nM
EC50 (read off the curve) [2]: ~1 nM
EC50 (read off the curve) [3]: ~3 nM
EC50 (read off the curve) [4]: ~3 nM
EC50 (read off the curve) [5]: ~1 nM
EC50 (read off the curve) [6]: ~1 nM
EC50 (read off the curve) [7]: ~2 nM
EC50 (read off the curve) [8]: ~2 nM
EC50 (read off the curve) [9]: ~1 nM
EC50 (read off the curve) [10]: ~0.2 nM
EC50 (read off the curve) [11]: ~0.2 nM
EC50 (read off the curve) [12]: ~2 nM
EC50 (read off the curve) [13]: ~2 nM
EC50 (read off the curve) [14]: ~2 nM
EC50 (read off the curve) [15]: ~2 nM
EC50 (read off the curve) [16]: ~0.1 nM
EC50 (read off the curve) [17]: ~0.6 nM
B1: Amivantamab (bispecific antibody, human IgG1, kappa)
heavy 1: not shown
light 1: not shown
heavy 2: not shown
light 2: DIQMTQSPSSVSASVGDRVTITCRASQGISNWLAWFQHKPGKAPKLLIYAASSLLSGVPSRFSGSGSGTDFTLTISSLQPEDFATYYCQQANSFPITFGQGTRLEIKRTVAAPSVFIFPPSDEQLKSGTASVVCLLNNFYPREAKVQWKVDNALQSGNSQESVTEQDSKDSTYSLSSTLTLSKADYEKHKVYACEVTHQGLSSPVTKSFNRGEC
notes: Bispecific positive control
